These are literature values, as cited in paper PMC8910669.

One may read the pKd as −log10 of the Kd, conventionally taken in molar units.

pKd: −log10 of the molar value.

The series has as its target SARS-CoV-2 spike RBD RBD (Severe acute respiratory syndrome coronavirus 2) (UniProt P0DTC2).

For the substance hBD-2 (from UniProt O15263), the negative-log Kd (pKd) was 6.52.
